Measured values as given in doi:10.1101/2025.11.07.687251 (2025).

B1: GFP-ATG13(1–230):ATG101 [human] / GST-WIPI2 [not stated] (parent complex)
chain 1: METDLNSQDRKDLDKFIKFFALKTVQVIVQARLGEKICTRSSSSPTGSDWFNLAIKDIPEVTHEAKKALAGQLPAVGRSMCVEISLKTSEGDSMELEIWCLEMNEKCDKEIKVSYTVYNRLSLLLKSLLAITRVTPAYRLSRKQGHEYVILYRIYFGEVQLSGLGEGFQTVRVGTVGTPVGTITLSCAYRINLAFMSTRQFERTPPIMGIIIDHFVDRPYPSSSPMHPCN
chain 2: MNCRSEVLEVSVEGRQVEEAMLAVLHTVLLHRSTGKFHYKKEGTYSIGTVGTQDVDCDFIDFTYVRVSSEELDRALRKVVGEFKDALRNSGGDGLGQMSLEFYQKKKSRWPFSDECIPWEVWTVKVHVVALATEQERQICREKVGEKLCEKIINIVEVMNRHEYLPKMPTQSEVDNVFDTGLRDVQPYLYKISFQITDALGTSVTTTMRRLIKDTLAL
chain 3: MNLASQSGEAGAGQLLFANFNQDNTSLAVGSKSGYKFFSLSSVDKLEQIYECTDTEDVCIVERLFSSSLVAIVSLKAPRKLKVCHFKKGTEICNYSYSNTILAVKLNRQRLIVCLEESLYIHNIRDMKVLHTIRETPPNPAGLCALSINNDNCYLAYPGSATIGEVQVFDTINLRAANMIPAHDSPLAALAFDASGTKLATASEKGTVIRVFSIPEGQKLFEFRRGVKRCVSICSLAFSMDGMFLSASSNTETVHIFKLETVKEKPPEEPTTWTGYFGKVLMASTSYLPSQVTEMFNQGRAFATVRLPFCGHKNICSLATIQKIPRLLVGAADGYLYMYNLDPQEGGECALMKQHRLDGSLETTNEILDSASHDCPLVTQTYGAAAGKAYTDDLGAVGGACLEDEASALRLDEDSEHPPMILRTD
B2: GFP-ATG13(1–230):ATG101 [human] / GST-WIPI3 [not stated] (parent complex)
chain 1: B1 chain 1
chain 2: B1 chain 2
chain 3: not shown

Variants of: B1
Assay: GST beads binding assay (microscopy-based, Glutathione Sepharose beads); 20 mM HEPES (pH 7.5), 200 mM NaCl, 2 mM MgCl2, 1 mM TCEP; room temperature, 60 minutes; read off a plot

**Q.** With chain 1 H214D, chain 1 F215D as the variant, how does the response read?
**A.** ~21000 A.U.

Variants of: B2
Assay: GST beads binding assay (microscopy-based, Glutathione Sepharose beads); 0.5 μM GST bait; 20 mM HEPES (pH 7.5), 200 mM NaCl, 2 mM MgCl2, 1 mM TCEP; room temperature, 60 minutes; read off a plot

**Q.** With chain 1 H214D, chain 1 F215D as the variant, how does the response read?
**A.** ~12000 A.U.
